According to the nanobody polyreactivity screen of Harvey et al. (2022):

Assay: yeast display, Sf9 membrane polyspecificity reagent, FACS + sequencing; frameworks hold sequencing errors
Procedure, shortened: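 Using colony PCR, genes from sorted yeast display clones were amplified, then sequenced on MiSeq at 2 × 250 and filtered by CDR length. The clones had been stained with 10% biotinylated, detergent-solubilized Sf9 membrane reagent for 1 hour at 4 °C and sorted by FACS into low and high (top ~1%) gates on anti-HA and streptavidin fluorescence. Polyreactivity labels come from the gate of origin.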

Sequence	polyreactivity (PSR sort gate)
QVQLVESGGGLVQAGGSLRLSCAASGITFAYYAMGWYRQAPGKERELVAAITGDGGSTYYADSVKGRFTISRDNAKNTVYLQMNSLKPEDTAVYYCNAELSDYRYDWWDYDYWGQGTQVTVSS	high polyreactivity
QVQLVESGGGLVQAGGSLRLSCAASGSILRSYAMGWYRQAPWKERELVAVINGSGGRTYYADSVKGRFTISRDIAKNTVYLQMNSLKPEDTAVYYCNADPGGRYPRRGYAHEGDYWGQGTQVTVSS	low polyreactivity
QVQLVESGRGLVQAGGSLRLSCAASGFTFVYYAMGWYRQAPGKERELVATISGNGGRTYYADSVKGRFTISRDNAKNTVYLQMNSLKPEDTAVYYCAALLYIRSVGYDYWGQGTQVTVSS	low polyreactivity
QVQLQERGVGLVQAGGTISLGYDMVWYRQAPGKEREFVAGIDTCAITYYADSVKGRFTNSRDNAKNTVYLQMNILNPEDTAVYYCAANQTHTYAHSYWGQGTQVTVSS	high polyreactivity
QVQLVESGGGLVQAGGSLRLSCAASGRILRGNAMGWYRQAPGKERELVADINYSDGSTYYADSVKGRFTISRDNAKNTVYLQMNSLKPEDTAVYYCAADLRITSYNSWGHGTQVTVSS	low polyreactivity
QVQLVESGGGLVQAGGSLRLSCAASGITFYKYDMGCYRQATGKERELVAAISFRGGNTNYADSVKGRFTISRDNAKNTVYLQMTSLKPEDTAVYYCAAYSYTWFYEYGYWGLGTQVTVSS	high polyreactivity
QDQHVESGGGLVQAGGSLRLSCAASGSIFGYYARGWYRQAPGTETELVAAISKSGTRTYYADSVKGRFTISRDNAKNTVYVQMNSLKPEETAVYYCAARYYSRTTAMDYWGQGTQVTVSS	high polyreactivity
QVQLVESGGGLVQAGGSLRLSCAASGRIFTYYAMGWYRQAPGKERELVAAINGRGGRTYYADSVKGRFTISRDNAKNTVYLQMNSLKPEDTAVYYCAARGYAPDTYGYWGQGTQVTVSS	high polyreactivity
QVQLVESGGGLVKAGGSLRLSCAASGRTFLRNAMGWYRQAPGKERELVATITRGGSTYYADSVKGRFTISRDNAKNTVYLQMNSLKPEDTAVYYCAKDITGGFRRPDYGYWGHGTQVTVSS	low polyreactivity
QVQLVESGGGLVQAGGSLRLSCAASGFIFGDYAMGWYRQAPGKERELVAAISRSGGRTYYADSVKGRFTISRDNAKNTVYLQMNSLKPEDTAVYDCAKSCLNIYDYWGQVTQVTVSS	high polyreactivity
QVQLVESGGGLVQAGGSLRLSCAASGLTFEGYAMGWYRQAPGKERELVAAISSSSGRTYYADSVKGRFTISRDNAKNTVYLQMNSLKPEDTAVYYCAARPGSGRSYTSDYWGQGTQVTVSS	high polyreactivity
QVQLVESGGGLVQAGGSLRLSCAAYGGTLPVNAMGWYRQAPVKERELVAAITTGTSTNYADSVKGRFTISRDNAKNTVYLQMNSLKPEDNAVYYCAKDQADFAYGYWGEGTQVTVSS	low polyreactivity
HVQLGESGGGLVQAGGSLRLSCAASGFIFDVYAMGWYRQAPGKERELVAAISSSGGRTYYADSVKGRFTISRDNAKNTVYLQMNSLKPEDTAVYYCAAKTHSRTKVYTADYWGQGTQVTVSS	high polyreactivity
QVQLVESGGGLVQAGGSLRLSCAASGSIFPYNAMGWYRQPPGKERELVATISSGGSTNYADSVKGRFTISRDNAKNTVYLQMNSLKPEDTAVFYCAADVIVFYYAPNYWGDIEYGYWGQGTQVTVSS	low polyreactivity
QVQLVESGGGLVQAGGSLRLSCAASGSIFWVYAMGWYRQAPGKEREFVATISTDGGSTHYADSVKGRFTISRDNAKNTFYLQMNSLKPEDTAVYYCAADTPWYDDNYDYWGQGTQVTVSS	low polyreactivity
QVQLVESGGGLVQAGGSLRLSCAASGFVWNAMGWYRQAPGKERELVAAINWRGGSTNYADSVKGRFTISRDNAKNTVYLQMNSLKPEDTAVYYCAAYFFHYHFYQAAYDYWGQGTQVTVSS	low polyreactivity
HVQQQESGGGLVQAGGSLRLSCAASGYISVVIGMCWYRQSPGKERELVASIAYGAITYYTDRVKGRFTISRDYAKNTEYLQMNSLKAEDTAVYYCAADQPPLAYHWYWGQGTQATVSS	high polyreactivity
QVQLVESGGGLVQAGGSLRLSCAASGRIFSRYVMGWYRQAPGKERELVAAITRNGGNTYYADSVTGRFTISRDNAKNTVYLQMNSLKPEDTAVYYCAGRAVLKSWAYYYWGQGTQVTVSS	high polyreactivity
QVHLVESGGGLVQAGGSLRLSCAASGRTVEGNAMGWYIQAPGKERELVAAITSGGRTNYADSVKGRFTISRDNAKNTVYLQMNSLKPVDTAVYYCAVETRDRSTDFPGQAYDYWGQGTQLTVSS	low polyreactivity
QVQLVESGGGLVQAGGSLRLSCAASGRTFYPYAMGWYRQAPGKERELVATITWSGTTTYYADSVKGRFTISRDNAKNTVYLQMNSLKPEDTAVYYCAADVWEVVTPYGTIDDDYWGQGTQVTVSS	high polyreactivity
QVQLVESGGGLVQAGGSLRLSSAASGRIFGVYAMGWYRQAPGKERELVAAITRSGGSTYYADSVKGRFTISRDNAKNTDYLQMKSLKPEDTAVYYCNRDFRGLAYSDRYDYWGQVTQVTVSS	low polyreactivity
QVQLVESGGGLVQAGGSLRLSCAASGFILYFNAMGWYRQAPGKDRELVAVISCTGVRTNYADSVKGRFTISRDNAKNTVYLQMNSLKPEDTAVYYCAAGYYSYRPRDYWGQGTQVTVSS	low polyreactivity

Sequence	polyreactivity (PSR sort gate)
QVQLVESGGGLVQAGGSLRLSCAASGSIFWSYAMGWYRQAPGKERELVAAITWGCGSTNYADSVKGRFTISRDNAKNTVYLQMNSLIAEDTGVYYCATDNRYVVDYDYWGQGTQVTVSS	high polyreactivity
QVQLVESGGGLVQAGGSLRLSCAASGSTFSPYAMVWYRQEPGKERELVAAITWSGGSTYYADSVKGRFTISRDNAKNSVYLQMNSLKPEDTAVYYCNAVPYLSIEYDYWGQGTQVTVSS	high polyreactivity
QVQLVESGGGLVQAGGSLRLSCAASGFIFADNAMGWYRQAPGKERELVAGITSGGITNYADSVKGRFTISRDNAKNTVYLQMNSLKPEDTAVYYCAVYYRRWFSRYDYWGQGTQVTVSS	low polyreactivity
QVQLVESGGGLVQAGGSLRLSCAASGITFQDYAMGWYRQAPGKERELVAAISKSGGSTYYADSVKGRFTISRDNAKNTVYLQMNSLKPEDTAVYYCAAYAQKRYYWGQGTQVTVSS	high polyreactivity
QVQLVESGGGLVQAGGSLRLTCAASGLTFNYYAMGWYRQAPGKERELVAAISSDGRTDYADSVKGRFTISRDNAKNTVYLQMNSLKPEDTAVYYCAASWYRWGKSWRQYDYWGQGTQVNVSS	low polyreactivity
QVQLVESGGGLVKAGGSLRLSCAASGRIFNYYAMGWYRQAPGKERELVAAISSVGSTNYADSVTGRFTISRDNAKNTVYLQMISLKPEDTAVYYCAAPYQHYDVNYDSWGQGTQVTVSS	low polyreactivity
QVQLVESGGGLVQAGGSLRLSCAASGYTLYLNAMGWYRQAPGKERELFARISGGGSTNYADSVKGRFTISRDNAKNTVYLQMNSLKPEDTAVYYCAATIFAYGYRSFKLDYWGQGTQVTVSS	low polyreactivity
QVQLVESGGGLVQAGGSLRLSCAASGRIFYPNAMGWYRQAPGKERELVAVIRSRGGSTYYADSVKGRFTISRDNAKNTVYLQMNSLKPEDTAVYYCAARWVGRRTKYDYWGQGTQVTVSS	high polyreactivity
QVQLVESGGGLVQAGGSLSLSCAASGSIFYVYAMGWYRQAPGKERELVASINKSGGSTYYADSVKGRFTISRDNAKNTVYLQMNSLKPEDTAVYYCAARYGWPRVGFQYPAHVGFDYWGQGTQVTVSS	low polyreactivity
QVQLVESGGGLVQAGGSLRLSCAASGRTISWYAMGRYRQAPGKERELVAAITYSGGSTYYAVSVKGRFTISRDNAKNTVYLQMNSLKPEDTAVYYCAADGRVREYDYWGQGTQVTVSS	high polyreactivity
QVQLVESGGGLVQAGGSLRLSCAASGGIISINAMGWYRQAPGKERELVAAISWGDGITYYADSVKGRFTTSRDNAKNTVYLLMTSLKPEDTAVYYCAKDIGTRLGPAGYDYWGQGTQVTVSS	low polyreactivity
QVQLVESGGGLVQAGGSLRLSSAASGFTFYWYAMGWYRQAPGKEREFVAAIDQSGGSTYYADSVKGRFTISRDNAKNTVYLQMNSLKPEDTAVYYCAARYILWDGYSWTEFDYWGQGTQVTVSS	low polyreactivity
QDQLVESGGGLVQAGGSLRLSCAASGNIYPYAMGWYRQAPGKEREFVAAIRYSGGITYYADSVKGRFTISRDNAKNTVYLQMNSLKPEDTAVYYCAAYGWGNRWYSRFDYWGQGTQVTVSS	high polyreactivity
QVQLVESGGGLVQAGGSLRLSCAASGSIFRSNAMGWYRQAPGKEREFVAAITSRSSSTYYADSVKGRFTISRDNAKNTVYLQMNSLKPEDTAVYYCAARYQHYFTGGDYWGQGTQVTVSS	low polyreactivity
QVQLVESGGGLVQAGGSLRLSCAASGSIFYQNVMGGYRQAPGKERELVAAISSSGDSTYYADSVKGRFTISRDNAKNTVYLQMNSLKPEDTAVYYCAAEPEYVSGPYDYWGQGTQVTVSS	low polyreactivity
QVQLVETGGGLVQAGGSLRLSCAASGSTFEYYAMGWYRQAPGKERELVAAISSGPSTTYADSVKGRFTISRDNAKNTVYLQMNSLKPEDTAVYYCARRDGTTQALFGYDYWGQGTQVTVSS	low polyreactivity
QVQLVESGGGLVQAGGSLRLSCAASGSTFQQYAMGWYRQAPGKERELVAAISWRGGSTYYADSVKGRFTISRDNAKNTVYFQMNSLKPEDTAFYYCAARYQPGGFSRYDYYYWGQGTQVTVSS	high polyreactivity
QDQLVESGGGLVHAGGSLRLSCAASVSIFVRNAMGWYRQAPGKERELVAADSVKGRFTISRDNAKNTVYLQMNSLKPEDTAVYYCNKDYIIRRGPIVYYGFDYWGQGTQVTVSS	low polyreactivity
QVQLVESGGGLVQAGGSLRLSCAASGRIFTGNALGWYRQAPGKESELVAAITRNGGSTYYADSVKGRFTLSRDNAKNTVYVQMNSLKPEDTAVYYCAAKLSPVYYRRYDYWGQGTQVTVSS	high polyreactivity
QVQIVESGGGLVHAGGSLRLSCAASGSIYKRYAMGWYRQAPGKERELVAAIRWSGGSTYYADSVKGRFTISRDNAMNTVFLQMNSLKPEDTAVYYCARDGWGRLYGMGYWGQGTQVTVSS	low polyreactivity
QVQLVESGGGLVQAGGRLRLSCAASGSIFSSYAMGWYRQAPGKERELVAAITNSGVSTYYADSVKGRFTISRDNAKYTVYLQMNSLKPEVTASITALKTVVRLPTVYTPLLNWYYYWGQGTQVTVSS	low polyreactivity
